Data on 10 molecules can be found in doi:10.1101/2023.12.01.569227 (bioRxiv, 2023).

To fix the notation:
B1: VHH-72 (VHH)
VHH: QVQLQESGGGLVQAGGSLRLSCAASGRTFSEYAMGWFRQAPGKEREFVATISWSGGSTYYTDSVKGRFTISRDNAKNTVYLQMNSLKPDDTAVYYCAAAGLGTVVSEWDYDYDYWGQGTQVTVSS
B2: Seq4 (VHH)
VHH: QVQLQESGGGLVQAGGSLRLSCAASGRSFSEYAMGWFRQAPGKEREFVATISWSGRATYYTDSVKGRFTISRDNAKNTVYLQMNSLKPDDTAVYYCARAGYGVVVSEWDYDYDYWGQGTQVTVSS
B3: Seq3 (VHH)
VHH: QVQLQESGGGLVQAGGSLRLSCAASGRMFSETAMGWFRQAPGKEREFVATISWSGRGTYYTDSVKGRFTISRDNAKNTVYLQMNSLKPDDTAVYYCAGAGYGVYVSEWDYDYDYWGQGTQVTVSS
B4: Seq6 (VHH)
VHH: QVQLQESGGGLVQAGGSLRLSCAASGRLFSEYAMGWFRQAPGKEREFVATISWSGRSTYYTDSVKGRFTISRDNAKNTVYLQMNSLKPDDTAVYYCAKAGWGVVVSEWDYDYDYWGQGTQVTVSS
B5: Seq5 (VHH)
VHH: QVQLQESGGGLVQAGGSLRLSCAASGRMFSEYAMGWFRQAPGKEREFVATISWSGKGTYYTDSVKGRFTISRDNAKNTVYLQMNSLKPDDTAVYYCARAGFGVYVSEWDYDYDYWGQGTQVTVSS
B6: Seq11 (VHH)
VHH: QVQLQESGGGLVQAGGSLRLSCAASGRKFSEYAMGWFRQAPGKEREFVATISWSGRLTYYTDSVKGRFTISRDNAKNTVYLQMNSLKPDDTAVYYCAGAGYGVVVSEWDYDYDYWGQGTQVTVSS
B7: Seq8 (VHH)
VHH: QVQLQESGGGLVQAGGSLRLSCAASGYGFSEYAMGWFRQAPGKEREFVATISWSGRSTYYTDSVKGRFTISRDNAKNTVYLQMNSLKPDDTAVYYCARAGWGVVVSEWDYDYDYWGQGTQVTVSS
B8: Seq7 (VHH)
VHH: QVQLQESGGGLVQAGGSLRLSCAASGLKFSETAMGWFRQAPGKEREFVATISWSGRSTYYTDSVKGRFTISRDNAKNTVYLQMNSLKPDDTAVYYCARAGYGVVVSEWDYDYDYWGQGTQVTVSS
B9: Seq1 (VHH)
VHH: QVQLQESGGGLVQAGGSLRLSCAASGRTFSETAMGWFRQAPGKEREFVATISWSGRGTYYTDSVKGRFTISRDNAKNTVYLQMNSLKPDDTAVYYCAYAGYGVVVSEWDYDYDYWGQGTQVTVSS
B10: Seq2 (VHH)
VHH: QVQLQESGGGLVQAGGSLRLSCAASGRGFSEYAMGWFRQAPGKEREFVATISWSGGGTYYTDSVKGRFTISRDNAKNTVYLQMNSLKPDDTAVYYCARAGFGVWVSEWDYDYDYWGQGTQVTVSS

The target in the first assay is SARS-CoV-1 RBD (SARS-CoV-1 (SARS-CoV), Urbani, UniProt P59594, biotinylated with an EZ-Link NHS-PEG4 biotinylation kit). Description: BLI.
Take B1: the binding result is “binds”. In the case of B2, the binding result is on record as “binds”. Take B3: the binding result is given as “binds”.

Take B4: the binding result is listed as “binds”. Take B5: the binding result was “binds”. On the same count and under the same terms, to B6 belongs “binds”; to B7, “binds”; to B8, “binds”. The same measure, in the same setting: to B9 belongs “binds”.

For B10, the binding result was “binds”.

In a further assay the target is SARS-CoV-2 RBD (SARS-CoV-2, Wuhan-Hu-1, UniProt P0DTC2, biotinylated with an EZ-Link NHS-PEG4 biotinylation kit). Description: BLI. On the technique in general: In BLI a coated tip is dipped into the sample, and binding shifts an interference pattern.
Consider B1, for which the “fold weaker binding than to SARS-CoV-1 RBD” value was over 5 fold.
